Experimental data as given in publication PMC5299410.
Where “and” joins values, the source holds several entries; their conditions need not be identical. Equal values may be shown once.

Columns and labels:
Cys32 [1] = target: T1, Cys32 (UniProt position 33, FWAEWCGPCKM); assay: fluorescence; conditions: not stated (no added NaCl mentioned); 15 mM acetic acid, 15 mM MES, 30 mM Tris, 100 μM dtpa, 2 mM DTT; reduced (dithiol) thioredoxin in the presence of 2 mM DTT; folded
Cys35 = Cys35 (UniProt position 36, EWCGPCKMIAP); assay: chemical modification; conditions: 120 mM NaCl plus buffer components, 30 mM ACES, 15.6 mM ethanolamine, 15.6 mM TRIS, 0.1 mM DTPA, reduced (dithiol) thioredoxin, DTT removed by gel filtration, folded
Cys32 [2] = target: T1, Cys32; assay: chemical modification; conditions: 120 mM NaCl plus buffer components, 30 mM ACES, 15.6 mM ethanolamine, 15.6 mM TRIS, 0.1 mM DTPA, reduced (dithiol) thioredoxin, DTT removed by gel filtration, folded

Substance	pKa (Cys32 [1])	pKa (Cys35)	pKa (Cys32 [2])
Thioredoxin 1 (EcTRX) E101G (Escherichia coli; E101G)	7.1 ± 0.1 and 7.10 ± 0.04	9.0 ± 0.2	6.80 ± 0.20
Thioredoxin 1 (EcTRX) L94A (Escherichia coli; L94A)	–	8.8 ± 0.1	6.9 ± 0.1
Thioredoxin 1 (EcTRX) L107A (Escherichia coli; L107A)	–	–	7.3 ± 0.1
Thioredoxin 1 (EcTRX) N106A (Escherichia coli; N106A)	–	8.9 ± 0.1	6.5 ± 0.1
Thioredoxin 1 (EcTRX), wild type (Escherichia coli)	7.5 ± 0.2 and 7.23 ± 0.06	9.3 ± 0.3	7.3 ± 0.3
